Test results from the supplement of paper PMC9112550, “Optimization of the antimicrobial peptide Bac7 by deep mutational scanning” (BMC Biology, 2022).
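Also: peptides expressed intracellularly from a pBAD plasmid library in pooled LB shake-flask culture, induced with 0.3% L-arabinose, DNA abundance read by NGS, three biological replicates, DESeq2 with apeglm shrinkage.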

What follows are sequences tested on Escherichia coli TOP10 (assay: shrunken log2 fold change of peptide-encoding DNA abundance (4.5 h post-induction vs induction); higher = less antimicrobial activity (less host growth inhibition)). Conditions: time post-induction: 4.5 h; library: site-saturation at positions 5, 18, 19, 20.
With RRIRTRPPRLPRPRPRPQNEPRP the “shrunken log2 fold change” value was -0.276.
With RRIRTRPPRLPRPRPRPQNWPRP the “shrunken log2 fold change” value was -0.265.
With RRIRTRPPRLPRPRPRPQPIPRP the “shrunken log2 fold change” value was 0.0337.
RRIRTRPPRLPRPRPRPQQRPRP was tested, and the “shrunken log2 fold change” value was -0.0699.
For RRIRTRPPRLPRPRPRPQRMPRP, the “shrunken log2 fold change” value was -0.272.
For RRIRTRPPRLPRPRPRPQSQPRP, the “shrunken log2 fold change” value was -0.138.
For RRIRTRPPRLPRPRPRPQVVPRP, the “shrunken log2 fold change” value was -0.0349.
RRIRTRPPRLPRPRPRPQYLPRP was tested, and the “shrunken log2 fold change” value was -0.436.
With RRIRTRPPRLPRPRPRPRAFPRP the “shrunken log2 fold change” value was 0.184.
In the case of RRIRTRPPRLPRPRPRPRAKPRP, the “shrunken log2 fold change” value is reported as 0.346.
RRIRTRPPRLPRPRPRPRCTPRP was tested, and the “shrunken log2 fold change” value was -0.00178.
With RRIRTRPPRLPRPRPRPRCWPRP the “shrunken log2 fold change” value was 0.386.
RRIRTRPPRLPRPRPRPRDMPRP was tested, and the “shrunken log2 fold change” value was 0.161.
In the case of RRIRTRPPRLPRPRPRPREQPRP, the “shrunken log2 fold change” value is reported as 0.198.
RRIRTRPPRLPRPRPRPRHWPRP was tested, and the “shrunken log2 fold change” value was 0.0182.
With RRIRTRPPRLPRPRPRPRKKPRP the “shrunken log2 fold change” value was 0.173.
With RRIRTRPPRLPRPRPRPRLDPRP the “shrunken log2 fold change” value was -0.0828.
In the case of RRIRTRPPRLPRPRPRPRLHPRP, the “shrunken log2 fold change” value is reported as 0.0546.
For RRIRTRPPRLPRPRPRPRLYPRP, the “shrunken log2 fold change” value was 0.0155.
RRIRTRPPRLPRPRPRPRMDPRP was tested, and the “shrunken log2 fold change” value was -0.38.
RRIRTRPPRLPRPRPRPRMLPRP was tested, and the “shrunken log2 fold change” value was 0.292.
In the case of RRIRTRPPRLPRPRPRPRMRPRP, the “shrunken log2 fold change” value is reported as 0.753.
For RRIRTRPPRLPRPRPRPRNRPRP, the “shrunken log2 fold change” value was -0.0827.
For RRIRTRPPRLPRPRPRPRPPPRP, the “shrunken log2 fold change” value was 0.745.
RRIRTRPPRLPRPRPRPRQRPRP was tested, and the “shrunken log2 fold change” value was 0.394.
RRIRTRPPRLPRPRPRPRQTPRP was tested, and the “shrunken log2 fold change” value was 0.0617.
In the case of RRIRTRPPRLPRPRPRPRRFPRP, the “shrunken log2 fold change” value is reported as -0.115.
RRIRTRPPRLPRPRPRPRSAPRP was tested, and the “shrunken log2 fold change” value was 0.0929.
With RRIRTRPPRLPRPRPRPRSGPRP the “shrunken log2 fold change” value was 0.284.
In the case of RRIRTRPPRLPRPRPRPRSPPRP, the “shrunken log2 fold change” value is reported as 0.0437.
For RRIRTRPPRLPRPRPRPRSWPRP, the “shrunken log2 fold change” value was 0.532.
In the case of RRIRTRPPRLPRPRPRPRWFPRP, the “shrunken log2 fold change” value is reported as 0.196.
In the case of RRIRTRPPRLPRPRPRPSARPRP, the “shrunken log2 fold change” value is reported as 0.0995.
For RRIRTRPPRLPRPRPRPSAVPRP, the “shrunken log2 fold change” value was -0.0697.
With RRIRTRPPRLPRPRPRPSDEPRP the “shrunken log2 fold change” value was -0.516.
With RRIRTRPPRLPRPRPRPSECPRP the “shrunken log2 fold change” value was -0.166.
RRIRTRPPRLPRPRPRPSEDPRP was tested, and the “shrunken log2 fold change” value was -0.494.
For RRIRTRPPRLPRPRPRPSEFPRP, the “shrunken log2 fold change” value was -0.369.
RRIRTRPPRLPRPRPRPSFRPRP was tested, and the “shrunken log2 fold change” value was -1.02.
With RRIRTRPPRLPRPRPRPSGIPRP the “shrunken log2 fold change” value was -0.0172.
In the case of RRIRTRPPRLPRPRPRPSIMPRP, the “shrunken log2 fold change” value is reported as -0.827.
In the case of RRIRTRPPRLPRPRPRPSKNPRP, the “shrunken log2 fold change” value is reported as -0.325.
In the case of RRIRTRPPRLPRPRPRPSLSPRP, the “shrunken log2 fold change” value is reported as 0.00222.
RRIRTRPPRLPRPRPRPSMMPRP was tested, and the “shrunken log2 fold change” value was -0.0802.
For RRIRTRPPRLPRPRPRPSMPPRP, the “shrunken log2 fold change” value was -0.363.
RRIRTRPPRLPRPRPRPSNHPRP was tested, and the “shrunken log2 fold change” value was -0.666.
With RRIRTRPPRLPRPRPRPSPNPRP the “shrunken log2 fold change” value was -0.337.
In the case of RRIRTRPPRLPRPRPRPSRGPRP, the “shrunken log2 fold change” value is reported as 0.178.
For RRIRTRPPRLPRPRPRPSSQPRP, the “shrunken log2 fold change” value was -0.153.
With RRIRTRPPRLPRPRPRPSTDPRP the “shrunken log2 fold change” value was 0.201.
RRIRTRPPRLPRPRPRPSTMPRP was tested, and the “shrunken log2 fold change” value was -0.669.
For RRIRTRPPRLPRPRPRPSTQPRP, the “shrunken log2 fold change” value was -0.0187.
RRIRTRPPRLPRPRPRPSVCPRP was tested, and the “shrunken log2 fold change” value was -0.203.
RRIRTRPPRLPRPRPRPSVEPRP was tested, and the “shrunken log2 fold change” value was 0.0926.
For RRIRTRPPRLPRPRPRPSWVPRP, the “shrunken log2 fold change” value was -0.165.
In the case of RRIRTRPPRLPRPRPRPSYEPRP, the “shrunken log2 fold change” value is reported as -0.352.
For RRIRTRPPRLPRPRPRPTAFPRP, the “shrunken log2 fold change” value was 0.13.
In the case of RRIRTRPPRLPRPRPRPTAIPRP, the “shrunken log2 fold change” value is reported as 0.0593.
RRIRTRPPRLPRPRPRPTCQPRP was tested, and the “shrunken log2 fold change” value was 0.234.
For RRIRTRPPRLPRPRPRPTCVPRP, the “shrunken log2 fold change” value was -0.308.
With RRIRTRPPRLPRPRPRPTDPPRP the “shrunken log2 fold change” value was -0.198.
For RRIRTRPPRLPRPRPRPTDTPRP, the “shrunken log2 fold change” value was -0.0527.
For RRIRTRPPRLPRPRPRPTFAPRP, the “shrunken log2 fold change” value was 0.459.
RRIRTRPPRLPRPRPRPTFRPRP was tested, and the “shrunken log2 fold change” value was -0.0105.
For RRIRTRPPRLPRPRPRPTGDPRP, the “shrunken log2 fold change” value was 0.475.
In the case of RRIRTRPPRLPRPRPRPTGWPRP, the “shrunken log2 fold change” value is reported as 0.511.
With RRIRTRPPRLPRPRPRPTINPRP the “shrunken log2 fold change” value was -0.565.
RRIRTRPPRLPRPRPRPTISPRP was tested, and the “shrunken log2 fold change” value was -0.488.
For RRIRTRPPRLPRPRPRPTKLPRP, the “shrunken log2 fold change” value was -0.0813.
For RRIRTRPPRLPRPRPRPTLHPRP, the “shrunken log2 fold change” value was -0.126.
With RRIRTRPPRLPRPRPRPTMFPRP the “shrunken log2 fold change” value was -0.148.
In the case of RRIRTRPPRLPRPRPRPTMSPRP, the “shrunken log2 fold change” value is reported as -0.163.
RRIRTRPPRLPRPRPRPTQIPRP was tested, and the “shrunken log2 fold change” value was 0.0112.
RRIRTRPPRLPRPRPRPTQPPRP was tested, and the “shrunken log2 fold change” value was 0.176.
In the case of RRIRTRPPRLPRPRPRPTRTPRP, the “shrunken log2 fold change” value is reported as 0.767.
In the case of RRIRTRPPRLPRPRPRPTTGPRP, the “shrunken log2 fold change” value is reported as -0.191.
For RRIRTRPPRLPRPRPRPTTVPRP, the “shrunken log2 fold change” value was -0.271.
For RRIRTRPPRLPRPRPRPTVSPRP, the “shrunken log2 fold change” value was 0.077.
With RRIRTRPPRLPRPRPRPVANPRP the “shrunken log2 fold change” value was 0.133.
For RRIRTRPPRLPRPRPRPVCCPRP, the “shrunken log2 fold change” value was -0.254.
RRIRTRPPRLPRPRPRPVDEPRP was tested, and the “shrunken log2 fold change” value was -0.146.
RRIRTRPPRLPRPRPRPVEDPRP was tested, and the “shrunken log2 fold change” value was 0.0389.
RRIRTRPPRLPRPRPRPVEKPRP was tested, and the “shrunken log2 fold change” value was -0.016.
RRIRTRPPRLPRPRPRPVEQPRP was tested, and the “shrunken log2 fold change” value was 0.112.
RRIRTRPPRLPRPRPRPVHAPRP was tested, and the “shrunken log2 fold change” value was -0.00294.
For RRIRTRPPRLPRPRPRPVIEPRP, the “shrunken log2 fold change” value was -0.408.
In the case of RRIRTRPPRLPRPRPRPVIMPRP, the “shrunken log2 fold change” value is reported as -0.181.
For RRIRTRPPRLPRPRPRPVIRPRP, the “shrunken log2 fold change” value was -0.176.
With RRIRTRPPRLPRPRPRPVKHPRP the “shrunken log2 fold change” value was -0.411.
In the case of RRIRTRPPRLPRPRPRPVKKPRP, the “shrunken log2 fold change” value is reported as 0.0316.
In the case of RRIRTRPPRLPRPRPRPVLAPRP, the “shrunken log2 fold change” value is reported as 0.479.
With RRIRTRPPRLPRPRPRPVMCPRP the “shrunken log2 fold change” value was -0.222.
In the case of RRIRTRPPRLPRPRPRPVMYPRP, the “shrunken log2 fold change” value is reported as 0.0131.
For RRIRTRPPRLPRPRPRPVNWPRP, the “shrunken log2 fold change” value was 0.0495.
For RRIRTRPPRLPRPRPRPVPDPRP, the “shrunken log2 fold change” value was -0.0687.
For RRIRTRPPRLPRPRPRPVRNPRP, the “shrunken log2 fold change” value was 0.509.
For RRIRTRPPRLPRPRPRPVRTPRP, the “shrunken log2 fold change” value was 0.149.
RRIRTRPPRLPRPRPRPVSAPRP was tested, and the “shrunken log2 fold change” value was 0.252.
With RRIRTRPPRLPRPRPRPVSFPRP the “shrunken log2 fold change” value was -0.114.
RRIRTRPPRLPRPRPRPVTKPRP was tested, and the “shrunken log2 fold change” value was 0.0906.
For RRIRTRPPRLPRPRPRPVTLPRP, the “shrunken log2 fold change” value was -0.37.
In the case of RRIRTRPPRLPRPRPRPVVGPRP, the “shrunken log2 fold change” value is reported as 0.626.
With RRIRTRPPRLPRPRPRPVVNPRP the “shrunken log2 fold change” value was 0.0198.
RRIRTRPPRLPRPRPRPVVPPRP was tested, and the “shrunken log2 fold change” value was -0.314.
With RRIRTRPPRLPRPRPRPVVSPRP the “shrunken log2 fold change” value was 0.075.
RRIRTRPPRLPRPRPRPVVVPRP was tested, and the “shrunken log2 fold change” value was 0.0543.
RRIRTRPPRLPRPRPRPVWPPRP was tested, and the “shrunken log2 fold change” value was 0.332.
In the case of RRIRTRPPRLPRPRPRPVYDPRP, the “shrunken log2 fold change” value is reported as -0.156.
RRIRTRPPRLPRPRPRPVYFPRP was tested, and the “shrunken log2 fold change” value was -0.558.
